# Reference: the RNAGym collection of RNA variant scans (doi:10.1073/pnas.2313332121)
# Fewer inactive variants are shown than the library holds.
# B1: TPR 5TU (parent)
# chain: GGAUCUUCUCGAUCUAACAAAAAAGACAAAUCUGCCACAAAGCUUGAGAGCAUCUUCGGAUGCAGAGGCGGCAGCCUUCGGUGGCGCGAUAGCGCCAACGUUCUCAACUAUGACACGCAAAACGCGUGCUCCGUUGAAUGGAGUUUAUCAUG
# Variants of: B1
# Assay: polymerase ribozyme fitness, log enrichment relative to wild type (log ratio); higher = more active; in vitro selection for triplet polymerase activity
# Outline: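 In triplicate, a single round of in vitro selection was run on each mutant library, PCR-built and transcribed, covering one subunit of a heterodimeric triplet polymerase ribozyme. Frozen incubation at −7 °C followed annealing with a biotinylated primer, partner subunit and triplets, and extended constructs were then gel-excised, streptavidin-captured and taken through RT-PCR. Fitness is the logarithm of genotype enrichment over wild-type enrichment, from inverse-variance-weighted replicate averages of Illumina-sequenced inputs and outputs. […] only genotypes with ≥10 input reads and ≥1 read per output were kept.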
row,Variant,polymerase ribozyme fitness (log ratio)
1,G11C A17U A23U C38U C95U A138G,≤ -4.2
2,C8A A23C C38U A142G,≤ -4.2
3,G50A U53A G58C C79U A121G U134A U139G,≤ -4.2
4,A37C C51A G92U A106C,≤ -4.2
5,C51U C69A C96U G141C,-3.18
6,A121U G141A,0.973
7,A21U G58C C76G C87U C105A A119U,≤ -4.2
8,G42C G46A C75G A91G U102G G133U G152A,≤ -4.2
9,U56G G62U C85A A119C C131U,-1.78
10,U53A C87A A107C C108A U111G U146C U148A,≤ -4.2
11,G50U C87U A115U U144A,-3.8
12,C5G U15G A49U A91U C116A C149G,≤ -4.2
13,A37U G81A U101C U111A U148G,≤ -4.2
14,C51U G70A A91C A97C U144C,≤ -4.2
15,U45A G59C C85U G86A G92U U146G,≤ -4.2
16,C79U G80C C85U C93U,≤ -4.2
17,C95A A98U U104G A106C,≤ -4.2
18,A19G C35U G58A C85A G143A,-3.66
19,C38G A47C,-0.652
20,A29U G50U G59A C87A,≤ -4.2
21,C14U A40U A41U A49U A73G G92A C125U,-4.11

row,Variant,polymerase ribozyme fitness (log ratio)
1,G68A C93G,≤ -4.2
2,A16C C38A,-1.34
3,G74A U90C G94A A98U,≤ -4.2
4,A73C C87A,≤ -4.2
5,C36A A47U A52U U53A G59C A106G,≤ -4.2
6,A98U A115C G143A,-3.88
7,C76A C96U,-0.773
8,G48A G81U G92U C118A G152C,≤ -4.2
9,A41C U55C U56A C75A G83C C131A U135C,≤ -4.2
10,G81A C96A A98C,-0.656
11,G126A C149G,-3.13
12,G59C A60C C99U A119C,≤ -4.2
13,G62C G74A G83A C125A U139G G140A,≤ -4.2
14,U6A C75U C93G C131G,≤ -4.2
15,A40C U44A A49C G65A C75G G84U C118U G128U U130C,≤ -4.2
16,A20G U144A,-0.576
17,A47C U148A,-3.16
18,A23C C54G A64G C125A U148C C149A A150U,≤ -4.2
19,C14G A29U,-3.98
20,C27A C87A C93A G143C U144G,≤ -4.2
21,A19G A26U U45A A52U U61A G70C C85G A115U G141U,≤ -4.2

row,Variant,polymerase ribozyme fitness (log ratio)
1,G46C C54U,-0.821
2,A60C C85U A119C G124A,-1.25
3,A17U A24U U56G,-0.773
4,C51A U101C C123A,-2.09
5,G59C C85A,-0.943
6,U134G U148A,-3.87
7,G58A G83A,-0.976
8,A21C C27A C43U A89U G92U G126A U145A U151C,≤ -4.2
9,G46A A49C G59C U61A G86U,≤ -4.2
10,A91C A115G,-4.07
11,U53A G84A G94A C103U C114U G126C,≤ -4.2
12,U4A C93U,-1.34
13,A98U,-0.453
14,C10G C57A C108A A115G U134A G136U,≤ -4.2
15,C87U C116U,-0.851
16,C38A C93U,-1.67
17,G11U A22G U45G U53G G58C C85U C87A C99G A106U G136A A142U,≤ -4.2
18,A24U A91G A97G A115U,-4.19
19,C43U A119G,≤ -4.2
20,A49C A52C G68U G84A G140A,≤ -4.2
21,C116A G141A,-2.34

row,Variant,polymerase ribozyme fitness (log ratio)
1,A22U A26G C36A G42U C96G G128U C132G U144G,≤ -4.2
2,C35G U55A C85A A113C,-3.96
3,C10U A47C,-3.19
4,G59A U135A G141U,-1.18
5,C5G G50U G84U,-1.65
6,G59C A138C,-3.7
7,U13G A49U C57U C87G C118U U139C U151A,≤ -4.2
8,A29G C85A C114A A121G U134C,≤ -4.2
9,A24C C69A C105A C114U A122U,≤ -4.2
10,U53G G59C A147C,-0.875
11,C79G G124A,-3.82
12,C5U C18G G59A C93U C132U,-2.33
13,A24U C27G C38U C87U A91G C93G G133U,≤ -4.2
14,C35U U45A G59C C93G U144A,≤ -4.2
15,A12G A39C,-1.68
16,C43U G88A G94A A122G,≤ -4.2
17,A28U G80U,-4.11
18,A52C C75U G88C C96U C105G G136U,≤ -4.2
19,G58A U146C,0.448
20,U4C A147C,-0.0283
21,A39C,-1.87
